Measured values published in paper PMC7954794, “Protein context shapes the specificity of SH3 domain-mediated interactions in vivo” (Nature Communications, 2021).

System: growth of yeast strains under 51 stress conditions
Assay: Growth assays in 51 stress conditions (Fig. 1E-F, S2D, S5B)
Type: cell-based, Saccharomyces cerevisiae
Parameters: key to Growth (Fig. S2D) / growth of ABP1 SH3-swapped strains in stress condition: log2 colony size, average of median per strain (growth score)
Settings: FigS2D
In short: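 Colony sizes at 74 h on 51 stress media (37 °C) were log2 transformed, corrected for plate effects, and averaged across two plates as per-plate medians (growth score). Strains arrayed in 12 replicates with WT border, grown first on YPD for two days at 30 °C.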

B1: PIN3 (protein, UniProt Q06449 2-215, looked up)
[PSI+] inducibility protein 3: SASLINRSLTNIRTELDFLKGSNVISNDVYDQINKSLPAKWDPANAPRNASPASLEYVEALYQFDPQQDGDLGLKPGDKVQLLEKLSPEWYKGSCNGRTGIFPANYVKPAFSGSNGPSNLPPPPQYKAQELQQIPTQNSAASSYQQQPFPPPSTNYYQQPQQQPQQAPPPQQQQQQQQHQSSHSHLKSFGSKLGNAAIFGAGASIGSDIVNNIF
- growth of ABP1 SH3-swapped strains in stress condition (Bathophenanthroline.0.1uM): 10.8166
- growth of ABP1 SH3-swapped strains in stress condition (Bathophenanthroline.10uM): 10.6603
- growth of ABP1 SH3-swapped strains in stress condition (Bathophenanthroline.1uM): 10.7601
- growth of ABP1 SH3-swapped strains in stress condition (CaCl2.100mM): 10.8086
- growth of ABP1 SH3-swapped strains in stress condition (CaCl2.250mM): 10.7002
- growth of ABP1 SH3-swapped strains in stress condition (CaCl2.500mM): 10.193
- growth of ABP1 SH3-swapped strains in stress condition (Caffein.10mM): 10.1104
- growth of ABP1 SH3-swapped strains in stress condition (Caffein.2mM): 10.9501
- growth of ABP1 SH3-swapped strains in stress condition (CdCl2.100uM): 9.413
- growth of ABP1 SH3-swapped strains in stress condition (CdCl2.10uM): 10.8515
- growth of ABP1 SH3-swapped strains in stress condition (CdCl2.50uM): 9.821
- growth of ABP1 SH3-swapped strains in stress condition (CuSO4.1mM): 10.439
- growth of ABP1 SH3-swapped strains in stress condition (CuSO4.5mM): 7.85
- growth of ABP1 SH3-swapped strains in stress condition (Cycloheximide.0.05.uM): 11.0946
- growth of ABP1 SH3-swapped strains in stress condition (Cycloheximide.0.2.uM): 10.6691
- growth of ABP1 SH3-swapped strains in stress condition (Cycloheximide.0.5.uM): 10.0558
- growth of ABP1 SH3-swapped strains in stress condition (DMSO.2.): 10.999
- growth of ABP1 SH3-swapped strains in stress condition (DMSO.6.): 9.863
- growth of ABP1 SH3-swapped strains in stress condition (DMSO.8.): 9.083
- growth of ABP1 SH3-swapped strains in stress condition (Ethanol.2.): 10.7656
- growth of ABP1 SH3-swapped strains in stress condition (Ethanol.6.): 10.3279
- growth of ABP1 SH3-swapped strains in stress condition (Ethanol.8.): 10.22
- growth of ABP1 SH3-swapped strains in stress condition (Galactose.2.): 10.8019
- growth of ABP1 SH3-swapped strains in stress condition (Glycerol.2.): 9.823
- growth of ABP1 SH3-swapped strains in stress condition (Hydroxyurea.25mM): 10.7882
- growth of ABP1 SH3-swapped strains in stress condition (Hygromycin.190uM): 10.9875
- growth of ABP1 SH3-swapped strains in stress condition (Hygromycin.19uM): 10.9831
- growth of ABP1 SH3-swapped strains in stress condition (Hygromycin.95uM): 10.9742
- growth of ABP1 SH3-swapped strains in stress condition (MMS.0.004.): 10.989
- growth of ABP1 SH3-swapped strains in stress condition (MMS.0.02.): 10.7926
- growth of ABP1 SH3-swapped strains in stress condition (MMS.0.04.): 10.0504
- growth of ABP1 SH3-swapped strains in stress condition (Menadione.100uM): 10.5651
- growth of ABP1 SH3-swapped strains in stress condition (Menadione.200uM): 10.4599
- growth of ABP1 SH3-swapped strains in stress condition (Menadione.50uM): 10.8547
- growth of ABP1 SH3-swapped strains in stress condition (NaCl.0.25M): 10.7663
- growth of ABP1 SH3-swapped strains in stress condition (NaCl.1M): 9.587
- growth of ABP1 SH3-swapped strains in stress condition (Nitroquinoline.10uM): 10.765
- growth of ABP1 SH3-swapped strains in stress condition (Nitroquinoline.50uM): 10.634
- growth of ABP1 SH3-swapped strains in stress condition (Nystatin.0.01uM): 10.9089
- growth of ABP1 SH3-swapped strains in stress condition (Nystatin.0.1uM): 10.9679
- growth of ABP1 SH3-swapped strains in stress condition (Raffinose.2.): 10.9939
- growth of ABP1 SH3-swapped strains in stress condition (Rapamycin.10nM): 9.886
- growth of ABP1 SH3-swapped strains in stress condition (Rapamycin.50nM): 9.402
- growth of ABP1 SH3-swapped strains in stress condition (SC.pH3): 10.4061
- growth of ABP1 SH3-swapped strains in stress condition (SC.pH6): 11.0349
- growth of ABP1 SH3-swapped strains in stress condition (SDS.0.01.): 10.9539
- growth of ABP1 SH3-swapped strains in stress condition (SDS.0.02.): 10.9685
- growth of ABP1 SH3-swapped strains in stress condition (SDS.0.05.): 10.8165
- growth of ABP1 SH3-swapped strains in stress condition (Sorbitol.10mM): 10.9792
- growth of ABP1 SH3-swapped strains in stress condition (Sorbitol.1mM): 10.9728
- growth of ABP1 SH3-swapped strains in stress condition (Sorbitol.5mM): 10.9245

B2: SDC25 (protein, UniProt P0CF34 1-1048, looked up)
Putative truncated guanine …: MPITSSPDLFYLNDCDVVYWYDLTRLVCHYVNLTERDLLANEREKFLTSLDLLTAQITYVYMLFRNLRLVEDSFKKTLKKLIYTLSRFSINANIWFHSTLFEEREAIASQKDPERRSPLLQSILGTFQKFHFLLRLLHFLSNPNELTILPQLTPRFFKDSFNTISWNNPFLRKRLNQHMSHDLPRQMIKAVAGASGIVAENIDEIPASKQGTSCSSETSHHSPSAPFQRRRRGTIFSNVSGSSDESDTIWSKRKKPYPLNEETLSLVRARKKQLDGKLKQMIKSANEYLSNTANFSKMLNFEMNFKTYEEVSGTIPIIDILENLDLTIFLNLRELGDENRVFDEDVAIDDEDEEFLKHSLSSLSYILSDYFNMKQYFHDVVVKFIIVAQHLTLEDPFVFSPMQNDLPTGYYEPMKPSSLNLDNAKDKKNGSQNTDIQEEEDEYEPDPDSLILFHNLINQDSDFNDLKFFNLAHVFKKSCDDYFDVLKLAIEFVNQLILERENLLNYAARMMKNNITELLLRGEEGYGSYDGGETAEKSDTNAVYADSDTKDNDEWRDSQVKLPRYLQREYDSELIWGSNNRIKGGSKHALISYLTDNEKKDLFFDITFLITFRSIFTTTEFLSYLISQYNLDPPEDLCFEEYNEWVTKKLIPVKCRVVEIMTTFFKQYWFLGYDEPDLATLNLDYFAQVAIKENITGSVELLKEVNQKFKHGNIQEATAPMKTLDQQICQDHYSGTLYSTTESILAVDPVLFATQLTILEHEIYCEITIFDCLQKIWKNKYTKSYGASPGLNEFISFANKLTNFISYSVVKEADKSKRAKLLSHFIFIAEYCRKFNNFSSMTAIISALYSSPIYRLEKTWQAVIPQTRDLLQSLNKLMDPKKNFINYRNELKSLHSAPCVPFFGVYLSDLTFTDSGNPDYLVLEHGLKGVHDEKKYINFNKRSRLVDILQEIIYFKKTHYDFTKDRTVIECISNSLENIPHIEKQYQLSLIIEPKPRKKVVPNSNSNNKSQEKSRDDQTDEGKTSTKKDRFPKFQLHKTKKKAPKVSK
- growth of ABP1 SH3-swapped strains in stress condition (Bathophenanthroline.0.1uM): 10.8364
- growth of ABP1 SH3-swapped strains in stress condition (Bathophenanthroline.10uM): 10.6904
- growth of ABP1 SH3-swapped strains in stress condition (Bathophenanthroline.1uM): 10.7994
- growth of ABP1 SH3-swapped strains in stress condition (CaCl2.100mM): 10.8248
- growth of ABP1 SH3-swapped strains in stress condition (CaCl2.250mM): 10.7599
- growth of ABP1 SH3-swapped strains in stress condition (CaCl2.500mM): 10.2626
- growth of ABP1 SH3-swapped strains in stress condition (Caffein.10mM): 10.0769
- growth of ABP1 SH3-swapped strains in stress condition (Caffein.2mM): 11.0485
- growth of ABP1 SH3-swapped strains in stress condition (CdCl2.100uM): 9.5
- growth of ABP1 SH3-swapped strains in stress condition (CdCl2.10uM): 10.8639
- growth of ABP1 SH3-swapped strains in stress condition (CdCl2.50uM): 9.958
- growth of ABP1 SH3-swapped strains in stress condition (CuSO4.1mM): 10.5113
- growth of ABP1 SH3-swapped strains in stress condition (CuSO4.5mM): 8.27
- growth of ABP1 SH3-swapped strains in stress condition (Cycloheximide.0.05.uM): 11.0819
- growth of ABP1 SH3-swapped strains in stress condition (Cycloheximide.0.2.uM): 10.7047
- growth of ABP1 SH3-swapped strains in stress condition (Cycloheximide.0.5.uM): 10.178
- growth of ABP1 SH3-swapped strains in stress condition (DMSO.2.): 11.0639
- growth of ABP1 SH3-swapped strains in stress condition (DMSO.6.): 9.8939
- growth of ABP1 SH3-swapped strains in stress condition (DMSO.8.): 9.304
- growth of ABP1 SH3-swapped strains in stress condition (Ethanol.2.): 10.7995
- growth of ABP1 SH3-swapped strains in stress condition (Ethanol.6.): 10.2862
- growth of ABP1 SH3-swapped strains in stress condition (Ethanol.8.): 10.1201
- growth of ABP1 SH3-swapped strains in stress condition (Galactose.2.): 10.8278
- growth of ABP1 SH3-swapped strains in stress condition (Glycerol.2.): 9.649
- growth of ABP1 SH3-swapped strains in stress condition (Hydroxyurea.25mM): 10.7663
- growth of ABP1 SH3-swapped strains in stress condition (Hygromycin.190uM): 10.9932
- growth of ABP1 SH3-swapped strains in stress condition (Hygromycin.19uM): 11.0621
- growth of ABP1 SH3-swapped strains in stress condition (Hygromycin.95uM): 11.0036
- growth of ABP1 SH3-swapped strains in stress condition (MMS.0.004.): 10.9622
- growth of ABP1 SH3-swapped strains in stress condition (MMS.0.02.): 10.7008
- growth of ABP1 SH3-swapped strains in stress condition (MMS.0.04.): 9.99
- growth of ABP1 SH3-swapped strains in stress condition (Menadione.100uM): 10.5981
- growth of ABP1 SH3-swapped strains in stress condition (Menadione.200uM): 10.4339
- growth of ABP1 SH3-swapped strains in stress condition (Menadione.50uM): 10.8229
- growth of ABP1 SH3-swapped strains in stress condition (NaCl.0.25M): 10.7913
- growth of ABP1 SH3-swapped strains in stress condition (NaCl.1M): 9.689
- growth of ABP1 SH3-swapped strains in stress condition (Nitroquinoline.10uM): 10.6447
- growth of ABP1 SH3-swapped strains in stress condition (Nitroquinoline.50uM): 10.5332
- growth of ABP1 SH3-swapped strains in stress condition (Nystatin.0.01uM): 11.0104
- growth of ABP1 SH3-swapped strains in stress condition (Nystatin.0.1uM): 10.9861
- growth of ABP1 SH3-swapped strains in stress condition (Raffinose.2.): 11.0244
- growth of ABP1 SH3-swapped strains in stress condition (Rapamycin.10nM): 9.868
- growth of ABP1 SH3-swapped strains in stress condition (Rapamycin.50nM): 9.322
- growth of ABP1 SH3-swapped strains in stress condition (SC.pH3): 10.4118
- growth of ABP1 SH3-swapped strains in stress condition (SC.pH6): 11.0555
- growth of ABP1 SH3-swapped strains in stress condition (SDS.0.01.): 10.9877
- growth of ABP1 SH3-swapped strains in stress condition (SDS.0.02.): 11.0022
- growth of ABP1 SH3-swapped strains in stress condition (SDS.0.05.): 10.9318
- growth of ABP1 SH3-swapped strains in stress condition (Sorbitol.10mM): 10.9817
- growth of ABP1 SH3-swapped strains in stress condition (Sorbitol.1mM): 11.0284
- growth of ABP1 SH3-swapped strains in stress condition (Sorbitol.5mM): 10.9056
